Measured values reported in the supplement of paper PMC7125110.
± gives the standard error. Fewer inactive variants are shown than the library holds.

B1: glmS ribozyme (parent)
chain: AUAAAAGCGCCAGAACUACAGAAAUGUAGUUGACGAGGAGGAGGUUUAUCGAAUUUUCGGCGGAUGCCUCCAAA

Assays:
Conditions in all cases: with glucosamine-6-phosphate
[1] = variants of: B1; test: self-cleavage kobs at 40 uM GlcN6P; higher = faster cleavage; RNA array
Procedure, shortened: (§1)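 On sequenced MiSeq chips, barcoded ribozyme variants were made in situ by E. coli RNA polymerase and followed at 37 °C through a hybridised Cy3 probe. Glucosamine-6-phosphate was flowed in at 40 μM to 10 mM in HEPES/KCl/Mg(OAc)2 buffer. Exponential fits to normalised per-tile medians gave kobs, and weighted Michaelis–Menten fits gave kcat and KM.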

[2] = variants of: B1; test: self-cleavage kobs at 640 uM GlcN6P; higher = faster cleavage; RNA array
Procedure, shortened: as §1

[3] = variants of: B1; test: self-cleavage kobs at 10000 uM GlcN6P; higher = faster cleavage; RNA array
Procedure, shortened: as §1

[4] = variants of: B1; test: self-cleavage kobs at 2500 uM GlcN6P; higher = faster cleavage; RNA array
Procedure, shortened: as §1

[5] = variants of: B1; test: self-cleavage kobs at 160 uM GlcN6P; higher = faster cleavage; RNA array
Procedure, shortened: as §1

Variant	self-cleavage kobs at 40 uM GlcN6P [1]	self-cleavage kobs at 640 uM GlcN6P [2]	self-cleavage kobs at 10000 uM GlcN6P [3]	self-cleavage kobs at 2500 uM GlcN6P [4]	self-cleavage kobs at 160 uM GlcN6P [5]
C34A U54A G62U G63U	< 1e-05 s⁻¹	< 1e-05 s⁻¹	< 1e-05 s⁻¹	–	–
A33C U49C C50U	< 1e-05 s⁻¹	–	< 1e-05 s⁻¹	–	–
U31C A39U C68A	< 1e-05 s⁻¹	< 1e-05 s⁻¹	–	–	–
U31A U45A G62U C68A	< 1e-05 s⁻¹	–	–	–	–
A33G G35C C70G	0.000358 ± 8.4e-05 s⁻¹	–	0.000163 ± 4.5e-05 s⁻¹	–	–
A33G A36G G51U	< 1e-05 s⁻¹	–	< 1e-05 s⁻¹	–	–
A33G C61G A64C	< 1e-05 s⁻¹	–	< 1e-05 s⁻¹	–	–
A33G A42G U46G U56A	< 1e-05 s⁻¹	< 1e-05 s⁻¹	< 1e-05 s⁻¹	< 1e-05 s⁻¹	–
U31A G62U	< 1e-05 s⁻¹	< 1e-05 s⁻¹	< 1e-05 s⁻¹	–	< 1e-05 s⁻¹
A33G A39G G60U	< 1e-05 s⁻¹	–	< 1e-05 s⁻¹	< 1e-05 s⁻¹	–
G32C G40C	< 1e-05 s⁻¹	< 1e-05 s⁻¹	–	–	< 1e-05 s⁻¹
G32C A48C G60C	< 1e-05 s⁻¹	–	–	–	–
C34A C70G	< 1e-05 s⁻¹	–	–	< 1e-05 s⁻¹	–
G32U C67U C70U	< 1e-05 s⁻¹	–	–	–	–
U31C G41U U45G C70G	3.43e-05 ± 1.6e-05 s⁻¹	–	0.000585 ± 0.00013 s⁻¹	–	–
C34G A39U C70U	< 1e-05 s⁻¹	–	–	–	–
G32C G35C	< 1e-05 s⁻¹	< 1e-05 s⁻¹	< 1e-05 s⁻¹	–	–
A33U G44U	< 1e-05 s⁻¹	< 1e-05 s⁻¹	< 1e-05 s⁻¹	–	< 1e-05 s⁻¹
U31C G43U G66A	< 1e-05 s⁻¹	–	–	–	–
A33C C71G	< 1e-05 s⁻¹	–	–	< 1e-05 s⁻¹	–
G32A C50G G60A C68G	6.94e-05 ± 1.7e-05 s⁻¹	–	5.25e-05 ± 1.1e-05 s⁻¹	–	–
A33C U47C G59A	< 1e-05 s⁻¹	–	–	–	–
G32C A53U G59C C71U	< 1e-05 s⁻¹	< 1e-05 s⁻¹	< 1e-05 s⁻¹	–	–
A33U C50G C61A	0.000105 ± 2e-05 s⁻¹	–	0.000139 ± 2.7e-05 s⁻¹	–	–
A33C G51C G63C A64U	< 1e-05 s⁻¹	< 1e-05 s⁻¹	< 1e-05 s⁻¹	–	< 1e-05 s⁻¹
G32A A33U A39G C61G A64C C68A	< 1e-05 s⁻¹	–	< 1e-05 s⁻¹	–	–
U30G G35A	< 1e-05 s⁻¹	–	< 1e-05 s⁻¹	< 1e-05 s⁻¹	–

Variant	self-cleavage kobs at 40 uM GlcN6P [1]	self-cleavage kobs at 640 uM GlcN6P [2]	self-cleavage kobs at 10000 uM GlcN6P [3]	self-cleavage kobs at 2500 uM GlcN6P [4]	self-cleavage kobs at 160 uM GlcN6P [5]
A33G G35A U47A C67U C70G	5.2e-05 ± 2.3e-05 s⁻¹	–	6.3e-05 ± 1.7e-05 s⁻¹	–	–
U31C G43C	< 1e-05 s⁻¹	< 1e-05 s⁻¹	< 1e-05 s⁻¹	< 1e-05 s⁻¹	–
U31C G41U C70G	0.000329 ± 7e-05 s⁻¹	–	0.00237 ± 0.00061 s⁻¹	–	–
U30G C34A G51U A64U	< 1e-05 s⁻¹	–	–	–	–
U31A G59A G62A	< 1e-05 s⁻¹	–	–	–	–
U31G C50G C70U	5.37e-05 ± 2.4e-05 s⁻¹	–	4.81e-05 ± 1.5e-05 s⁻¹	–	–
U31G U45C U49G	< 1e-05 s⁻¹	< 1e-05 s⁻¹	< 1e-05 s⁻¹	–	–
G32C G43C A48G	< 1e-05 s⁻¹	–	–	–	–
C34A A64G	< 1e-05 s⁻¹	–	–	< 1e-05 s⁻¹	< 1e-05 s⁻¹
C34A A39C	< 1e-05 s⁻¹	–	< 1e-05 s⁻¹	< 1e-05 s⁻¹	< 1e-05 s⁻¹
A33U G41A U46C	< 1e-05 s⁻¹	–	< 1e-05 s⁻¹	–	–
G32C G41C	< 1e-05 s⁻¹	< 1e-05 s⁻¹	< 1e-05 s⁻¹	< 1e-05 s⁻¹	< 1e-05 s⁻¹
U30G C58G	< 1e-05 s⁻¹	6.88e-05 ± 3e-05 s⁻¹	0.000122 ± 1.4e-05 s⁻¹	6.46e-05 ± 1.8e-05 s⁻¹	–
U31A C34U C71U	< 1e-05 s⁻¹	–	–	–	–
G32C U46C	< 1e-05 s⁻¹	–	–	–	–
G32C U46A	< 1e-05 s⁻¹	< 1e-05 s⁻¹	–	–	< 1e-05 s⁻¹
A33C A39G G41C A53C	< 1e-05 s⁻¹	< 1e-05 s⁻¹	< 1e-05 s⁻¹	< 1e-05 s⁻¹	< 1e-05 s⁻¹
A33G C68U	< 1e-05 s⁻¹	–	< 1e-05 s⁻¹	–	–
A33C U54A U57C	< 1e-05 s⁻¹	–	–	< 1e-05 s⁻¹	–
C34A U45G C68U C71A	< 1e-05 s⁻¹	–	< 1e-05 s⁻¹	< 1e-05 s⁻¹	< 1e-05 s⁻¹
C34G A39U	< 1e-05 s⁻¹	< 1e-05 s⁻¹	< 1e-05 s⁻¹	< 1e-05 s⁻¹	–
A33G C34G G35U G38U	< 1e-05 s⁻¹	–	< 1e-05 s⁻¹	–	–
G32U A48U C58U C68U	< 1e-05 s⁻¹	–	–	–	–
U31A A52G C67G	6.56e-05 ± 1.9e-05 s⁻¹	–	9.04e-05 ± 1.2e-05 s⁻¹	–	–
U31G A42U C50U C61G	< 1e-05 s⁻¹	–	< 1e-05 s⁻¹	–	–
G32A G51A	< 1e-05 s⁻¹	< 1e-05 s⁻¹	< 1e-05 s⁻¹	–	< 1e-05 s⁻¹
